Measured values published in patent publication US20170226158A1 (AstraZeneca / MedImmune, published 2017).

T1: SUMO-L-Myc fusion protein (recombinant bHLHZip domain of L-Myc fused with a small ubiquitin-like modifier … (UniProt P12524 281-364))
T1 construct: not shown: small ubiquitin-like modifier (SUMO) protein
T1 sequence (looked up): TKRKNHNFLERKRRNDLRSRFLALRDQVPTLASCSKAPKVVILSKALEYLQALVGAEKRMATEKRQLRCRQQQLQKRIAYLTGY

T2: CD73 (UniProt P21589 27-549, limits assumed)
T2 construct: Target antigen in phage ELISA; construct not described
T2 sequence (looked up): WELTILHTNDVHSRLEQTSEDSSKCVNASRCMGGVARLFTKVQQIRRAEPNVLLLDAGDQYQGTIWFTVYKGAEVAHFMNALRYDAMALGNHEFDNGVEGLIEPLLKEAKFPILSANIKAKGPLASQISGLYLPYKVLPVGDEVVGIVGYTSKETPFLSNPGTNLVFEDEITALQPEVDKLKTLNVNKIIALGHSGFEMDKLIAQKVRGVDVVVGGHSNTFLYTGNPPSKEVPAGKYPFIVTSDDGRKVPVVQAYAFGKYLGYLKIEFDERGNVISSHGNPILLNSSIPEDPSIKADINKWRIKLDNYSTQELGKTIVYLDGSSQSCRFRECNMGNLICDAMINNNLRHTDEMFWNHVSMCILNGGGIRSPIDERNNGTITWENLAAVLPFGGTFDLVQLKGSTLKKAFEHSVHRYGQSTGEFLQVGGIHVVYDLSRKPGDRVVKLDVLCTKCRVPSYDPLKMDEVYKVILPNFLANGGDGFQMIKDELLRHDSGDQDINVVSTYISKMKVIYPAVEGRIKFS


target: T1, SUMO-L-Myc fusion protein (recombinant …); assay: second phage ELISA on coated antigens

Row | Binder | binding result
1 | DARPin 1 (template L-Myc DARPin, net charge -13) (designed binder, also called tDARPin S-13; S-13 tDARPin) DLGKKLLEAARAGQDDEVRILMANGADVNAMDQYGFTPLHLAAWYGHLEIVEVLLKHGADVNAKDVHGFTPLHLAAWTGHLEIVEVLLKNGADVNARDNEGSTPLHLAALAGHLEIVEVLLKNGADVNAQDKFGKTAFDISIDNGNEDLAEILQKL | binds

target: T2, CD73; assay: phage ELISA on target antigen, signal as % of parental WT

Row | Binder | % antigen binding activity retained (relative to parental)
2 | CD73 mut11 (designed binder, Net charge 11; Tested on phage) DLGKKLLEAARAGQNDKVRILMANGAKVNAADTWGRTPLHLAAYHGHLEIVKVLLKHGANVNAEDIHGFTPLHLAALWGHRKIVKVLLKNGAKVNAVDWYGHTPLHLAAIDGHRKIVKVLLKHGAKVNAQDKFGKTAFDISIENGNEKLAKILQKL | > 50%

target: T1, SUMO-L-Myc fusion protein (recombinant …); assay: as above

Row | Binder | % antigen binding activity retained (relative to parental)
3 | LMYC mut8 (designed binder, Net charge 11; Tested on phage) DLGKKLLEAARAGQNDKVRILMANGAKVNAMDQYGFTPLHLAAWYGHRKIVKVLLKHGANVKAKDVHGFTPLHLAAWTGHLEIVKVLLKNGANVKARDNEGSTPLHLAALAGHLEIVKVLLKNGAKVNAQDKFGKTAFDISIENGNEKLAKILQKL | > 50%
4 | LMYC mut7 (designed binder, Tested on phage) DLGKKLLEAARAGQNDKVRILMANGANVKAMDQYGFTPLHLAAWYGHRKIVKVLLKHGANVKAKDVHGFTPLHLAAWTGHLEIVEVLLKNGADVNARDNEGSTPLHLAALAGHRKIVKVLLKNGAKVNAQDKFGKTAFDISIENGNEKLAKILQKL | > 50%
5 | LMYC mut9 (designed binder, Net charge 11; Tested on phage) DLGKKLLEAARAGQNDKVRILMANGAKVNAMDQYGFTPLHLAAWYGHRKIVKVLLKHGANVKAKDVHGFTPLHLAAWTGHLEIVKVLLKNGAKVNARDNEGSTPLHLAALAGHLEIVKVLLKNGAKVNAQDKFGKTAFDISIENGNEKLAKILQKL | > 50%
6 | LMYC mut11 (designed binder, Net charge 12; Tested on phage) DLGKKLLEAARAGQNDKVRILMANGADVNAMDQYGFTPLHLAAWYGHRKIVKVLLKHGANVKAKDVHGFTPLHLAAWTGHRKIVKVLLKNGANVKARDNEGSTPLHLAALAGHLEIVKVLLKNGAKVNAQDKFGKTAFDISIENGNEKLAKILQKL | > 50%

target: T3, KRAS (UniProt P01116-2 1-188, limits assumed); assay: as above
T3 construct: Target antigen in phage ELISA; construct not described

Row | Binder | % antigen binding activity retained (relative to parental)
7 | KRAS mut8 (designed binder, Net charge 12; Tested on phage) DLGKKLLEAARAGQNDKVRILMANGAKVNARDHTGFTPLHLAAQHGHRKIVKVLLKNGAKVNAVDWFGRTPLHLAAKMGHLEIVKVLLKHGANVKADDHNGRTPLHLAAWEGHLEIVKVLLKYGAKVNAQDKFGKTAFDISIENGNEKLAKILQKL | > 50%
8 | KRAS mut11 (designed binder, Net charge 16; Tested on phage) DLGKKLLEAARAGQNDKVRILMANGAKVNARDHTGFTPLHLAAQHGHRKIVKVLLKNGAKVNAVDWFGRTPLHLAAKMGHRKIVKVLLKHGADVNADDHNGRTPLHLAAWEGHRKIVKVLLKYGAKVNAQDKFGKTAFDISIENGNEKLAKILQKL | > 50%
9 | KRAS mut6 (designed binder, Net charge 10; Tested on phage) DLGKKLLEAARAGQNDKVRILMANGAKVNARDHTGFTPLHLAAQHGHRKIVKVLLKNGADVNAVDWFGRTPLHLAAKMGHLEIVKVLLKHGAKVNADDHNGRTPLHLAAWEGHLEIVKVLLKYGAKVNAQDKFGKTAFDISIENGNEKLAKILQKL | > 50%
10 | KRAS mut9 (designed binder, Net charge 14; Tested on phage) DLGKKLLEAARAGQNDKVRILMANGAKVNARDHTGFTPLHLAAQHGHRKIVKVLLKNGANVKAVDWFGRTPLHLAAKMGHRKIVEVLLKHGANVKADDHNGRTPLHLAAWEGHRKIVKVLLKYGADVNAQDKFGKTAFDISIENGNEKLAKILQKL | > 50%
11 | KRAS mut7 (designed binder, Net charge 11; Tested on phage) DLGKKLLEAARAGQNDKVRILMANGANVNARDHTGFTPLHLAAQHGHLEIVKVLLKNGAKVNAVDWFGRTPLHLAAKMGHRKIVKVLLKHGANVKADDHNGRTPLHLAAWEGHLEIVKVLLKYGAKVNAQDKFGKTAFDISIENGNEKLAKILQKL | > 50%
12 | KRAS mut10 (designed binder, Net charge 15; Tested on phage) DLGKKLLEAARAGQNDKVRILMANGAKVNARDHTGFTPLHLAAQHGHRKIVKVLLKNGAKVNAVDWFGRTPLHLAAKMGHLEIVKVLLKHGANVKADDHNGRTPLHLAAWEGHRKIVKVLLKYGAKVNAQDKFGKTAFDISVENGNEKLAKILQKL | > 50%
